Experimental findings from publication PMC6123631 are described below.

Data set [1] deals with T1, FtFur WT (Francisella tularensis FSC198 (100% …, UniProt Q5NIN6 1-140)). In words: SEC-MALLS-RI. Conditions: protein: recombinant; tags: none; chain copies: 4; label: none (SEC-MALLS, SAXS).
Data set [2] has as its target T1, FtFur WT. In words: EMSA; 10 uM Mn2+; main species one dimer bound. Particulars: protein: recombinant; tags: none; chain copies: 4; label: 32P 5' end (EMSA).
For data set [3], the target named is T1, FtFur WT. Put plainly: EMSA. Conditions: protein: recombinant; tags: none; chain copies: 4; label: 32P 5' end (EMSA).

B1: FurBox (EcFurBox) (dsDNA)
DNA 1: GGGGATAATGATAATCATTATCGGG
DNA 2: CCCGATAATGATTATCATTATCCCC
Regarding B1, in the data set with FtFur WT [1], the binding result is “binds”.

B2: PfigAS (dsDNA)
DNA 1: GGGGATAATGATAACGAATATCATTATCGGG
DNA 2: CCCGATAATGATATTCGTTATCATTATCCCC
Consider B2, for which, in the data set with FtFur WT [2], the binding result is “binds”.

B3: PfigAL (PfigA, 43 bp) (dsDNA)
DNA 1: GGGCTACATGATAATGATAACGAATATCATTATCGTTTATGGG
DNA 2: CCCATAAACGATAATGATATTCGTTATCATTATCATGTAGCCC
As for B3, the Kd with FtFur WT [3] was approximately 5 nM.
